Reference: PMC10923667, “Cloning and expression heterologous alanine dehydrogenase genes: Investigation of reductive amination potential of L-alanine dehydrogenases for green synthesis of alanine derivatives” (Heliyon, 2024)

How the values were obtained:
[1] = biological target: T1, AfAlaDH (Archaeoglobus fulgidus, UniProt O28608); assay: NADH consumption at […] nm, Michaelis-Menten fit; format: biochemical; conditions: reductive amination; 0.5 mM NADH, 0.5 M NH4Cl, pH 9.5, 25 °C; read-out: Pyruvate / KM
T1 construct: gene ala; full-length, codon-optimised, pET-28a(+) NdeI/XhoI, N- and C-terminal 6xHis tags, E. coli BL21 (DE3), Ni-NTA purified
T1 sequence (O28608 1-322): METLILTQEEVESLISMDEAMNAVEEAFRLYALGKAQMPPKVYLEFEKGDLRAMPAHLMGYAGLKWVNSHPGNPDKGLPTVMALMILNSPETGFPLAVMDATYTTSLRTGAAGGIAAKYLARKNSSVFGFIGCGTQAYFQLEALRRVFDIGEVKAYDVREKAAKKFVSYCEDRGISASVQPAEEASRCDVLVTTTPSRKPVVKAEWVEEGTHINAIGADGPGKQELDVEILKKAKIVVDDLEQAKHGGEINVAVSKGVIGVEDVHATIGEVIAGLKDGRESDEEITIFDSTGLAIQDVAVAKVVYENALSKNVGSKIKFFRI

[2] = tested on: T2, CC(=O)C(=O)O; assay: purified protein; format: biochemical, Candidatus Bathyarchaeota archaeon; conditions: reductive amination, 0.5 mM NADH, 0.5 M NH4Cl, pH 10.5, 25 °C
T2 construct: full-length, codon-optimised, pET-28a(+) NdeI/XhoI, N- and C-terminal 6xHis tags, E. coli BL21 (DE3), Ni-NTA purified

[3] = tested on: T3, CCCC(=O)C(=O)O; assay: purified protein; format: biochemical, Candidatus Bathyarchaeota archaeon; conditions: reductive amination, 0.5 mM NADH, 0.5 M NH4Cl, pH 10.5, 25 °C
T3 construct: full-length, codon-optimised, pET-28a(+) NdeI/XhoI, N- and C-terminal 6xHis tags, E. coli BL21 (DE3), Ni-NTA purified

[4] = tested on: T4, CCC(=O)C(=O)O; assay: purified protein; format: biochemical, Candidatus Bathyarchaeota archaeon; conditions: reductive amination, 0.5 mM NADH, 0.5 M NH4Cl, pH 10.5, 25 °C
T4 construct: full-length, codon-optimised, pET-28a(+) NdeI/XhoI, N- and C-terminal 6xHis tags, E. coli BL21 (DE3), Ni-NTA purified

[5] = substrate: CCCCC(=O)C(=O)O; assay: purified protein; format: biochemical, Thermus thermophilus; conditions: reductive amination, 0.5 mM NADH, 0.5 M NH4Cl, pH 8.5, 25 °C
[6] = substrate: CCCC(=O)C(=O)O; assay: purified protein; format: biochemical, Thermus thermophilus; conditions: reductive amination, 0.5 mM NADH, 0.5 M NH4Cl, pH 8.5, 25 °C
[7] = substrate: CC(=O)C(=O)O; assay: purified protein; format: biochemical, Thermus thermophilus; conditions: reductive amination, 0.5 mM NADH, 0.5 M NH4Cl, pH 8.5, 25 °C
[8] = substrate: CCC(=O)C(=O)O; assay: purified protein; format: biochemical, Thermus thermophilus; conditions: reductive amination, 0.5 mM NADH, 0.5 M NH4Cl, pH 8.5, 25 °C
[9] = substrate: CCCC(=O)C(=O)O; assay: purified protein; format: biochemical, Melghiribacillus thermohalophilus; conditions: reductive amination, 0.5 mM NADH, 0.5 M NH4Cl, pH 9.5, 25 °C
[10] = substrate: CC(=O)C(=O)O; assay: purified protein; format: biochemical, Melghiribacillus thermohalophilus; conditions: reductive amination, 0.5 mM NADH, 0.5 M NH4Cl, pH 9.5, 25 °C
[11] = substrate: CCC(=O)C(=O)O; assay: purified protein; format: biochemical, Melghiribacillus thermohalophilus; conditions: reductive amination, 0.5 mM NADH, 0.5 M NH4Cl, pH 9.5, 25 °C
[12] = substrate: CCCC(=O)C(=O)O; assay: purified protein; format: biochemical, Ammoniphilus sp. CFH 90114; conditions: reductive amination, 0.5 mM NADH, 0.5 M NH4Cl, pH 10.5, 25 °C
[13] = substrate: CC(=O)C(=O)O; assay: purified protein; format: biochemical, Ammoniphilus sp. CFH 90114; conditions: reductive amination, 0.5 mM NADH, 0.5 M NH4Cl, pH 10.5, 25 °C
[14] = substrate: CCC(=O)C(=O)O; assay: purified protein; format: biochemical, Ammoniphilus sp. CFH 90114; conditions: reductive amination, 0.5 mM NADH, 0.5 M NH4Cl, pH 10.5, 25 °C
[15] = substrate: CCCC(=O)C(=O)O; assay: purified protein; format: biochemical, Archaeoglobus fulgidus; conditions: reductive amination, 0.5 mM NADH, 0.5 M NH4Cl, pH 9.5, 25 °C
[16] = substrate: CCC(=O)C(=O)O; assay: purified protein; format: biochemical, Archaeoglobus fulgidus; conditions: reductive amination, 0.5 mM NADH, 0.5 M NH4Cl, pH 9.5, 25 °C

CC(=O)C(=O)O [pyruvate]
Km [1]: 200 ± 100 µM

CbAlaDH (Candidatus Bathyarchaeota archaeon)
Km [2]: 400 ± 0 µM | kcat [2]: 0.5 ± 0.1 s⁻¹ | kcat/Km [2]: 1300 ± 100 M⁻¹ s⁻¹ | Km [3]: 800 ± 0 µM | kcat [3]: 0.17 ± 0.1 s⁻¹ | kcat/Km [3]: 210 ± 100 M⁻¹ s⁻¹ | Km [4]: 2200 ± 1000 µM | kcat [4]: 0.7 ± 0.2 s⁻¹ | kcat/Km [4]: 300 ± 200 M⁻¹ s⁻¹

B1: TtAlaDH (Thermus thermophilus HB8) (protein)
chain: MVIGVPKEIKTLENRVALTPGGVESLVRRGHTVLVERGAGEGSGLSDAEYARAGAELVGREEAWGAEMVVKVKEPLPEEYGFLREGLILFTYLHLAADRGLTEAMLRSGVTGIAYETVQLPDGTLPLLVPMSEVAGRMAPQVGAQFLEKPKGGRGVLLGGVPGVAPASVVILGGGTVGTNAAKIALGMGAQVTILDVNHKRLQYLDDVFGGRVITLTATEANIKKSVQHADLLIGAVLVPGAKAPKLVTRDMLSLMKEGAVIVDVAVDQGGCVETIRPTTHAEPTYVVDGVVHYGVANMPGAVPRTSTFALTNQTLPYVLKLAEKGLDALLEDAALLKGLNTHKGRLTHPGVAEAFGLPYTPPEEALRG
notes: full-length, codon-optimised, pET-28a(+) NdeI/XhoI, N- and C-terminal 6xHis tags, E. coli BL21 (DE3), Ni-NTA purified
Km [5]: 400 µM | Km [6]: 3300 ± 1100 µM | kcat [6]: 1.2 s⁻¹ | kcat/Km [6]: 400 M⁻¹ s⁻¹ | Km [7]: 630 ± 200 µM | kcat [7]: 87 ± 5.1 s⁻¹ | kcat/Km [7]: 138000 ± 15700 M⁻¹ s⁻¹ | Km [8]: 400 ± 100 µM | kcat [8]: 1.1 s⁻¹ | kcat/Km [8]: 3000 ± 700 M⁻¹ s⁻¹

B2: MetAlaDH (Melghiribacillus thermohalophilus) (protein)
chain: MKIGVPKEIKNNENRVALTPAGVMTLKKAGHEVFIETGAGLGSGFTDEQYTEAGAQIVTTAKEAWSQEMVMKVKEPLPEEYDYFYEGLILFTYLHLAAEPELTKALIEKKVVGIAYETVQLDNGSLPLLTPMSEVAGRMATQIGAQFLEKPHGGKGILLGGIPGVRRGKVTIIGGGVVGTNAAKIAVGLGADVTIVDLNPDRLRELDDIFGSSINTLMSNSLNIAEAVKESDLVIGAVLIPGAKAPKLVTEDMVKEMKKGSVIVDVAIDQGGIVETSDRITTHDNPTYEKHGVVHYAVANMPGAVPRTSTIGLTNVTVPYAVQLANKGYKQACLDHAALKKGINTLNGYVTYQAVAEAHGLEYENVDLLLK
notes: as for B1
Km [9]: 1900 ± 0 µM | kcat [9]: 0.7 s⁻¹ | kcat/Km [9]: 400 M⁻¹ s⁻¹ | Km [10]: 1300 ± 400 µM | kcat [10]: 140 ± 19.7 s⁻¹ | kcat/Km [10]: 108000 ± 12000 M⁻¹ s⁻¹ | Km [11]: 3800 ± 1200 µM | kcat [11]: 3.3 s⁻¹ | kcat/Km [11]: 800 M⁻¹ s⁻¹

B3: AcfhAlaDH (Ammoniphilus sp. CFH 90114) (protein)
chain: MIIGVPKEIKNNENRVGLTPAGVTAFKNNGHDVWVETNAGMGSGFTDEDYTAAGAKIVDSASVVWSAEMVVKVKEPLPEEYTYFREGLILYTYLHLAPEPELTKALVEKKVIAIAYETIQADNGSLPLLTPMSEVAGRMSIQIGAQFLEKSKGGKGVLLGGVPGVAPGEVVIVGGGIVGTNAAKMALGLGASVTLLDISADRLRQLDDMFQGRLKTLMSNSYNIAEAVKKADLVVGAVLIPGARAPRLVTEEMVKTMQPGSVIVDVAIDQGGSIETIDRITTHDNPTYVKHGVLHYAVANMPGAVARTSTIALTNVTVPYGVQIANKGWKQAALDNKALAKGINVVDGKVTYKAVAEAHGYTPVAVETVLTGQNVGV
notes: as for B1
Km [12]: 5200 ± 800 µM | kcat [12]: 1 s⁻¹ | kcat/Km [12]: 200 M⁻¹ s⁻¹ | Km [13]: 700 ± 200 µM | kcat [13]: 112 ± 6.6 s⁻¹ | kcat/Km [13]: 148000 ± 13500 M⁻¹ s⁻¹ | Km [14]: 1300 ± 400 µM | kcat [14]: 5.4 ± 0.5 s⁻¹ | kcat/Km [14]: 4000 ± 1400 M⁻¹ s⁻¹

B4: AfAlaDH (Archaeoglobus fulgidus DSM 4304) (protein)
chain: METLILTQEEVESLISMDEAMNAVEEAFRLYALGKAQMPPKVYLEFEKGDLRAMPAHLMGYAGLKWVNSHPGNPDKGLPTVMALMILNSPETGFPLAVMDATYTTSLRTGAAGGIAAKYLARKNSSVFGFIGCGTQAYFQLEALRRVFDIGEVKAYDVREKAAKKFVSYCEDRGISASVQPAEEASRCDVLVTTTPSRKPVVKAEWVEEGTHINAIGADGPGKQELDVEILKKAKIVVDDLEQAKHGGEINVAVSKGVIGVEDVHATIGEVIAGLKDGRESDEEITIFDSTGLAIQDVAVAKVVYENALSKNVGSKIKFFRI
notes: as for B1
Km [15]: 300 ± 0 µM | kcat [15]: 0.9 ± 0.2 s⁻¹ | kcat/Km [15]: 2700 ± 300 M⁻¹ s⁻¹ | Km [16]: 200 ± 0 µM | kcat [16]: 7.5 ± 0.1 s⁻¹ | kcat/Km [16]: 34000 ± 100 M⁻¹ s⁻¹
